The target of assay [1] is T1, chick N-cadherin expressed on transfected 3T3 cells (chick, UniProt P10288 165-912).
T1 sequence (looked up): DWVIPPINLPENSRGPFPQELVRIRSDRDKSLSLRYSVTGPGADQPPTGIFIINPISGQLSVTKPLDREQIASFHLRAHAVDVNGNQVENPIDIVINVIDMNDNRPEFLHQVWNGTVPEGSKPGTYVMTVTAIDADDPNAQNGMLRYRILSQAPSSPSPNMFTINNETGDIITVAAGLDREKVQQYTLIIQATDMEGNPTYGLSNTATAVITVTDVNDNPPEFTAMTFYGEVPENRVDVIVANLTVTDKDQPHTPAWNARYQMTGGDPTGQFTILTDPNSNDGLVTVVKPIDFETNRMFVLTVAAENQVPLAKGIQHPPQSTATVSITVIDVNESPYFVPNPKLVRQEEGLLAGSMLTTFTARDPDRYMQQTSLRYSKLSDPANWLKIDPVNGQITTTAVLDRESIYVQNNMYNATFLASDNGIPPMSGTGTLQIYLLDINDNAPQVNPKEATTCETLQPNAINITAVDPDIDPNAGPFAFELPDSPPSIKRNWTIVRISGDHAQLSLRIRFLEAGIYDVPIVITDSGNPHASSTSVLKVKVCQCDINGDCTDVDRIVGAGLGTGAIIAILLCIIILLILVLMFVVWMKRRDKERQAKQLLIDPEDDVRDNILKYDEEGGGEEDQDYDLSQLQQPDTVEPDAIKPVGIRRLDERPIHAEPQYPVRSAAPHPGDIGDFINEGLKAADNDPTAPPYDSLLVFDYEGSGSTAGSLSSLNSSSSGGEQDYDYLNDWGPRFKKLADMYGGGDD
The assay is described as follows: cell-based or functional assay.

The target in assay [2] is N-cadherin expressed on transfected 3T3 cells (Examples 2 and 21). In words: cell-based or functional assay.

Positions of bridges follow the written chain, without caps; N, C: chain ends.

The results in this text go back to patent US20040106545A1 (MCGILL UNIVERSITY, published 2004).

On to Ac-CHGVDC-NH2 (disulfide 1-6 (inferred)) [N-Ac-CHGVDC-NH2], for which the “% inhibition of N-cadherin dependent neurite outgrowth (peptide 250 µg/mL)” value (“% inhibition … (peptide 250 µg/mL)” for short) in assay [1] is -8.6%. Moreover, the “% Inhibition of neurite outgrowth, 250 µg/mL (rat neurons)” value (“% Inhibition of neurite outgrowth” below) in assay [2] came out at 0%.

With Ac-CAHAVC-NH2 (disulfide 1-6 (inferred)) [N-Ac-CAHAVC-NH2], the “% inhibition … (peptide 250 µg/mL)” value in assay [1] came out at 58.5%. Also, the “% Inhibition of neurite outgrowth” value in assay [2] is 51%.

Regarding Ac-CRAHAVDC-NH2 (disulfide 1-8 (inferred)) [N-Ac-CRAHAVDC-NH2], the “% inhibition … (peptide 250 µg/mL)” value in assay [1] is -5%. Also, the “% Inhibition of neurite outgrowth” value in assay [2] stood at 0%.

On to Ac-CAHGVDC-NH2 (disulfide 1-7 (inferred)) [N-Ac-CAHGVDC-NH2], for which, in assay [1], the “% inhibition … (peptide 250 µg/mL)” value is 4%.

Consider H-CAHGVDC-NH2 (disulfide 1-7 (inferred)) [H-CAHGVDC-NH2], for which the “% inhibition … (peptide 250 µg/mL)” value in assay [1] turned out to be 5.7%. Moreover, the “% Inhibition of neurite outgrowth” value in assay [2] was determined as 0%.

B1: N-Ac-CSHGVC-NH2 (peptide)
peptide: Ac-CSHGVC-NH2
modifications: disulfide 1-6
SMILES: CC(=O)N[C@H]1CSSC[C@@H](C(N)=O)NC(=O)[C@H](C(C)C)NC(=O)CNC(=O)[C@H](Cc2c[nH]cn2)NC(=O)[C@H](CO)NC1=O
For the molecule B1, the “% inhibition … (peptide 250 µg/mL)” value in assay [1] came out at 12.5%. Moreover, the “% Inhibition of neurite outgrowth” value in assay [2] was 0%.

H-CAHGVDIC-NH2 (disulfide 1-8 (inferred)) [H-CAHGVDIC-NH2]: in assay [1], the “% inhibition … (peptide 250 µg/mL)” value came to 7.2%. Also, the “% Inhibition of neurite outgrowth” value in assay [2] was 0%.

Regarding Ac-CHAVSC-NH2 (disulfide 1-6 (inferred)) [N-Ac-CHAVSC-NH2], the “% inhibition … (peptide 250 µg/mL)” value in assay [1] was -2.5%. Further, in assay [2], the “% Inhibition of neurite outgrowth” value is 0%.

With Ac-CLRAHAVDC-NH2 (disulfide 1-9 (inferred)) [N-Ac-CLRAHAVDC-NH2], the “% inhibition … (peptide 250 µg/mL)” value in assay [1] came to 76.3%. In addition, the “% Inhibition of neurite outgrowth” value in assay [2] was found to be 60%.

As for H-KHAVD-NH2 (lactam 1-5 (inferred)) [H-KHAVD-NH2], the “% Inhibition of neurite outgrowth” value in assay [2] turned out to be 0%.

As to Ac-CAHGVC-NH2 (disulfide 1-6 (inferred)) [N-Ac-CAHGVC-NH2], the “% inhibition … (peptide 250 µg/mL)” value in assay [1] was -6.4%. For the same molecule, the “% Inhibition of neurite outgrowth” value in assay [2] was determined as 0%.

Turning to Ac-CHGVC-NH2 (disulfide 1-5 (inferred)) [N-Ac-CHGVC-NH2], the “% inhibition … (peptide 250 µg/mL)” value in assay [1] stood at 4.8%. In assay [2], the “% Inhibition of neurite outgrowth” value came out at 0%.

In the case of H-KHGVD-NH2 (lactam 1-5 (inferred)) [H-KHGVD-NH2], the “% Inhibition of neurite outgrowth” value in assay [2] stood at 0%.

B2: N-Ac-CSHGVSC-NH2 (peptide)
peptide: Ac-CSHGVSC-NH2
modifications: disulfide 1-7
SMILES: CC(=O)N[C@H]1CSSC[C@@H](C(N)=O)NC(=O)[C@H](CO)NC(=O)[C@H](C(C)C)NC(=O)CNC(=O)[C@H](Cc2c[nH]cn2)NC(=O)[C@H](CO)NC1=O
Consider B2, for which the “% inhibition … (peptide 250 µg/mL)” value in assay [1] is 10.8%. For the same molecule, the “% Inhibition of neurite outgrowth” value in assay [2] worked out at 0%.

Ac-CAHGVDIC-NH2 (disulfide 1-8 (inferred)) [N-Ac-CAHGVDIC-NH2]: the “% inhibition … (peptide 250 µg/mL)” value in assay [1] was found to be 4.8%. The “% Inhibition of neurite outgrowth” value in assay [2] turned out to be 0%.

Ac-CLRAHAVC-NH2 (disulfide 1-8 (inferred)) [N-Ac-CLRAHAVC-NH2]: the “% inhibition … (peptide 250 µg/mL)” value in assay [1] stood at 9.9%. Further, the “% Inhibition of neurite outgrowth” value in assay [2] amounted to 0%.

In the case of Ac-CLRAHGVC-NH2 (disulfide 1-8 (inferred)) [N-Ac-CLRAHGVC-NH2], in assay [1], the “% inhibition … (peptide 250 µg/mL)” value was -0.5%. Also, the “% Inhibition of neurite outgrowth” value in assay [2] was determined as 0%.

In the case of Ac-KHAVD-NH2 (lactam 1-5 (inferred)) [N-Ac-KHAVD-NH2], the “% Inhibition of neurite outgrowth” value in assay [2] turned out to be 0%.

As to Ac-CAHAVDIC-NH2 (disulfide 1-8 (inferred)) [N-Ac-CAHAVDIC-NH2], in assay [1], the “% inhibition … (peptide 250 µg/mL)” value was 89.4%. For the same molecule, the “% Inhibition of neurite outgrowth” value in assay [2] turned out to be 82%.

Take Ac-KHGVD-NH2 (lactam 1-5 (inferred)) [N-Ac-KHGVD-NH2]: in assay [2], the “% Inhibition of neurite outgrowth” value amounted to 0%.

As for H-CHGVC-NH2 (disulfide 1-5 (inferred)) [H-CHGVC-NH2], the “% inhibition … (peptide 250 µg/mL)” value in assay [1] amounted to 7.8%. Further, in assay [2], the “% Inhibition of neurite outgrowth” value was determined as 0%.

As to Ac-CHGVSC-NH2 (disulfide 1-6 (inferred)) [N-Ac-CHGVSC-NH2], the “% inhibition … (peptide 250 µg/mL)” value in assay [1] is -6.7%. Also, the “% Inhibition of neurite outgrowth” value in assay [2] was 0%.

In the case of Ac-CRAHGVDC-NH2 (disulfide 1-8 (inferred)) [N-Ac-CRAHGVDC-NH2], the “% inhibition … (peptide 250 µg/mL)” value in assay [1] was -8%. Further, the “% Inhibition of neurite outgrowth” value in assay [2] came out at 0%.

Take Ac-CLRAHGVDC-NH2 (disulfide 1-9 (inferred)) [N-Ac-CLRAHGVDC-NH2]: in assay [1], the “% inhibition … (peptide 250 µg/mL)” value was -6.8%. For the same molecule, the “% Inhibition of neurite outgrowth” value in assay [2] turned out to be 0%.

In the case of Ac-CAHAVDC-NH2 (disulfide 1-7 (inferred)) [N-Ac-CAHAVDC-NH2], the “% inhibition … (peptide 250 µg/mL)” value in assay [1] amounted to 13.3%.

B3: N-Ac-CSHAVSC-NH2 (peptide)
peptide: Ac-CSHAVSC-NH2
modifications: disulfide 1-7
SMILES: CC(=O)N[C@H]1CSSC[C@@H](C(N)=O)NC(=O)[C@H](CO)NC(=O)[C@H](C(C)C)NC(=O)[C@H](C)NC(=O)[C@H](Cc2c[nH]cn2)NC(=O)[C@H](CO)NC1=O
As to B3, the “% inhibition … (peptide 250 µg/mL)” value in assay [1] amounted to 8.3%. Further, in assay [2], the “% Inhibition of neurite outgrowth” value came out at 0%.
